Values quoted from earlier work in patent publication US11931453B2, “Drug delivery device” (NANO PRECISION MEDICAL, INC., priority 2016, dated 2024).

Conditions: estimated, based on molecular dimensions of similar peptides (literature)

Substance: GLP-1: Glucagon-Like Peptide-1; exenatide is an analog of GLP-1
- Stokes' diameter / hydrodynamic diameter: about 2.6 nm
